# Laboratory results published in the NTF2 design screens of Basanta et al. (2020).
# Assay: protease stability score; higher = more stable; yeast display proteolysis, trypsin and chymotrypsin;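 also: relative to predicted unfolded state with 0 unfolded-like and 1 meaning tenfold more protease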
row,Sequence,protease stability score
1,SEIDEWLHRWFNLWIDAFITGDEDFLKELADPDVRLVDGDFEKVGREEFTRSMRQYLRHARVDHFRIKHQHMQGDKIHVHGHIEMTINGKHIRHEIRLRFVVINGRFHSMHIEID,0.975
2,DEERERREDETRLLLEILITGDEDRFRQLADPHMKLHIGDKDFIGREVAVKFLRDLWREFGIKHILFEDSTIVGDKLEHRMHLEVNGKRRRMELENVIIDGRVHSMHIRIH,1.39
3,NEEEEESKFANELWEETVKTGDERLNRSLADPNTRFHINGVDLHGWESMDETARRYKNITVRLHDMRTYNGRVHLDFEMRVGEFTTKVIIIARKFDGRWILKSIIVH,1.2
4,DEDTHWIRDALRRYEEMLRTGDEDLFRRLFDPHVRVEINGQENHGMESILKLYRDLVEHLGIKHVQEVELEDVNMIDGVIILHIRVRVRFDGKHETIRMNVVAYKVNGQWRLHELKEG,1.47
5,DEDEEMAHWAMEVLTKLIRTGDEDTILDMIDPHARIVYGDKTHHGREHFEKIIHELGVKVFEVHEIENQGEKVTIHGRQHVNGRTYDVKLFVQKVNGRWYIKRVHIK,1.42
6,SEEEEKARRLSELITRSFLTGDEEELEELLDPNARNIYNGVIVHGREEVSRLFHEEWLRYGIDHVRLEDMHIDVQGDKVDFHIIMRSEFNGRVHHVRVEVHIEKVDGRWVMKRLELRFS,0.977
7,DEDEEKVEHISKEYFRSFVTGDEDKLRKLLDPNARVYFNGQTVIGRELATKIVLELRNRQVEVDHLHIEYQGDKARLHQITTIDGHINGRDEWFEFHIEVHLRKVNGKWVIQRSEFEIR,0.252
8,SETDELLRQLAEFHRETLETGDFHTLWHLLDPHVRLDYNGQKMHGREHFARFWLELLTELRIHFRVRDIRTQGNKAHNRGEIIIHYDGRLRIIDSEIEIIVVNGKVTEVRHTIN,0.837
9,NEEHEVLERVVELFMEILDTGNERLSRELVDPHVRVIIGDKELHGREQVARFHKELHERVDHWEIHIRRIEFQGDKLHMDFELRNDYNGVRITTDLIILVKKVNGVWKLRAREVR,0.271
10,DESKRDVKMFHEIFLRAQSTGDEDELSHLADPNVRIHQGEFHNIGMEEFVKHIREMRVHVRDSHIERVEIQGDKLIVEVRLHMEIRYNGQRTERDVNLHLIIIKINGRWILHSIHIE,1.02
11,SEDEELVERALQEFLEHLETGDFETLRDQVDPNARVDIDGRERIGRHDILKHWEEWRWHEIKLKHVEFQGDFVHLDGKVRITIDGKEISTHVKILVYKVNGRWLMKELRIG,2.27
12,TEEEHLLKKLAELVWEAVETGDEDFLKKLVDPHTRLHVDGREHHGREDFIEILTRMGVDHHRLEHFRVIDGKLFIDGHFNFNGRYFRVHIIFIIINGRAKEFWMRTE,1.66
13,DEFHHLLELFLKLLAEQSRTGDEDSFERLFDPNVRVDINGRELHGWEAYQETRDRLGIERFDLRRIHSHTVNVVNGQVHMDMRTDGVIGDKRIDRTIHIRTTKINGRWFFTHLEWE,0.578
14,TEEEDRLREIAELIHKFLTTGDWEKIFRMLDPHVRVEIHVNGRDIIIHGWKNVHRLLEYELEELRFHQSDVHELRVQGDKAHSITEWDGVIDGRRQNLHVNVHFVTVDGRIRSIKFEFR,1.57
15,DEEEKHLRDMMEIVIKLFMTGDWDAFHEMADPDVKFQVDVGDKHIHRHGREEVVEELIRLLEHWRVRNIRIHDIKLIGDKLVVEGRWETSYGDKSHDEDVELIVIVVDGKIKKVRIIIR,2.72
16,DEHHEVSEKVAKLFLEIWETGDWKTLKRLADPRVRTHIIIGDKTINEHGRENYIRSTVEFLERFPNMRYEIREVRVIGDKIETQGEMNVNGKTFDVIIELIIIDGRIKEVRVENR,1.08
17,DDEERIASFVIKMWLHSYLTGDENLLREFLDPNVKVRNEVNGRDWTHHGREALLWLLEFLGVKHVEHVRLHDLLVVNGRATSREIYHGKIGDKRTTFHFTLYIIRIDGVVKKFEIELE,1.3
18,SEEEKIFEMAIKLMRHTLQTGDESTLHRLLDPHVRVVIGDKTYVGREATEFLLTRIDHIHDVEIHEVELINGRVNMHGIVDGTIGDKRVHVESNWVASKYDGRWHLKSISFH,1.29
19,REEEKDIRDVLKLWKDISRTGDEHLIRRLVDPNARLNFNGREIHGREDVAEFLLRRWRQIDHLEIIDRDVRYQGDKVEFHGHVREKIGDKEETYELEFILVKIDGRWLVHSLHVH,2.43
20,EEDKEDAKKAAEISSHSWETGDEDHLTKLFDPNVRITIGDKELHGMSLLHTFLREWGISNVDFRLHHIDVQGEKLKVDGILNVNGRHTKVTLHYEKINGKWVIKEIIII,1.26
21,TEDEKLVEIALELWLRSLRTGDEDMFRELFDPNTRIFVNGVDHHGRHALEIVKERYDHVRDFHIELRSVHYVNGVLHVDGHFRMDIKYGDKRRIIENRTIMIIEKINGRWIFKHERLE,1.24
22,SEEEELVKKATDHWKNVIKTGDEHTIKKLVDPSARIIINGQEHHGRHMIHTLIHLWGVDKIEVHLRHLHMQGDKLEIINEVRVNGQSSTLTTISTKINGVWQFEEVQLE,0.902
23,SEDEKVVKWASDVLLDYIRTGDWRSLEELIDPHARHDVNGVEIIGMEHILKHFMELRRRIDHIHLRVHHIRVFDGQIDLNGKLHVNINGREIELDTRVIALKVNGRWVNHIISIG,1.44
24,SELEEKTEKWARLFWLLYKTGDWETLEKLLDPHVRSEINGKEEHGRENMIRMLVDLLRLLGIDHIELHHIEFVNGKVIIHLSLHAENHSSELIIEVNIINGKIESIRIEVR,1.09
25,HEDEELSEWMEREMIDIMRTGDEHRFLRMADPNTRFEFNGKDIHGRERVLDVLEFLGIDHMEFEDSKVRLYDGRVEVRLEGRINVGDKQSESRITIKAEKINGRWVLHEVSIEHH,0.821

row,Sequence,protease stability score
1,DEHEHFMEYAMKRMLHSWLTGDEHDWHELADPNVKLHIGEYNFIGREEYYRHLHRHLHEAGFKHIKIDHIHVEIQGEKLIFRMDTTIHFNGRKLRVEVIVILFKVNGRWSLHTDEVHIE,0.931
2,DEDTKLVEEFLRDWLRALLTGDEEHLHKLLDPNTRVEINGQEFHGREMEVELMRHWRLDHIDIREIRITIIGNKVENHVRGRVDGEFDGRKINRETKLVNYVVKVNGRWLFHSMELRTH,1.35
3,SEKDREMEHFAKILISNLVTGDEEEIFRMADPHYRYQQGDKRIHGREEWRQWLREERERVDHIEFKIHRVEQQGEKIHLDWEIQIEIGNYEIKDKTTIIFIVVDGRLKQIEVRHH,0.786
4,DEDKHQLDEATKVWLELFLTGNEEELLKLADPDVRIEVDGKHFHGREVMLKLMQEWKHRLGINVDELKRTEIEVIDGKAHVHLDGELYIDGKTFRLDIEVVYEKIDGRWRLKKVRFDIR,2.15
5,DEENKHLKEIARRFVEDWETGDEDSLKHMLDPHARVVINGVEVHGREEIIKLFREIFHHIRIDHITVNTVITVNGVAHSHIHIRVDINGQERRHNTELIFVFVDGQVSQIKFETE,1.24
6,SEEDELAHRWVRTWVRAVETGDEDTLTELFDPHARIIITIGDKDIRLHGMHEMLRWYRFFKGMRIELEDMDIQGEKIDTDIRLHQGDKTTTTKLQLHIVNGRMEHVILRVQ,1.54
7,DDQEEFLQRLVEELLRIIETGDWRRFWELLDPNMRVDVDGREIHGMEILVTIIRELWRKLGIDHVHIRLDHVEAFNGQAHAETTVDLRYDGQIIIRESRNHFIIIDGKVEDEKYELR,0.279
8,DENHEVAEYILKILVESLETGNEELFKRLIDPNVRIEINGVEVHGWQFWIDHIDELRIRRVEAILRDAREYNGRIDMDTELKMDGEIDGVRTETSRRVRMVLEKVNGRWYVREIRIE,2.39
9,SEEEKIVDERIKILLESWDTGDWDSFIKMLDPNALSIVGEFVMHGRETVVDALDKLLKKLGVKMETHDTEHFEIYGNKARLETTIHLRVGDFHFKRRTRVHMEKVDGQWFITIYESG,1.31
10,SDHDKRVMHIWRAVLESYLTGDEHTLKELIDPNTRFFIGDKEYHGMETFSRYARRMYEHLRFSIEVKHEDAINGRYDTHLTLHWEIGDKTDTYDTRLHLDVYDGVVKRLEIRVH,1.46
11,DEEKDEVREIAERIFHNLRTGDEEKLKHLIDPHVRFEYGDKEHHGWEEMVHFLREWRIHHIHIRDIKVYDGVAHVNGEVDGKFNGRRFRSDTWVIIVTINGRVKQISIQIN,1.33
12,TEEDEELKRWFDHFLESMITGDEHQNTELFDPNVLIHINGRQLHGRESAKIFIKEIRYEEIEVTHVRKYGNYVISSGVVRVRINGQESTIKTEVIVLKVNGQWLIRFVRFE,2.26
13,SEVEESIEHAREIVTEVIKTGDEHHLNRLADPNTRVVFDGKDLHGRERLEEVLREMGVNHIEIKDMKYDSQGNKVHIDIDGRVNVGEKSHNTHLHWIVEKVNGRWLLSSIIIIIR,0.886
14,DDIEEDVKEFLRLMKEMNETGDEHRLTEMADPNVRVHIGDKHFHGREDAERLWRRADVFHHIKIKEYELQGDKLYMNVEVDGKFDGKRIRHDVTEIVTKVNGRWLLRSIRFD,0.577
15,SEEDKEFEDLIKFWIHLLETGDFDTLRDLADPHVRVTIDGRDLHGREILLTFWEKVKNIKLDLKSIRVINGVVIMHGDTNFDGKRSHVELHIKKINGRWYITEFRIE,2.25
16,DEIEELSNRLLELLRHFLQTGDEDMLRKLMDPHVRIDIDGQDFHGRESAVKLLRFWIDHMRWKDRRLRHVRIQGNFIEIDTIEHGEINGREHDLTTHIIASKVNGRWVLHSILFR,1.81
17,DEDEDDAERVFEELRKLIITGDEEEWEKLADPHVRVIINGRELHGREEWARFMRHMRIKNEHVHLRRMRVVDGRIEIDGEMDFRVDFNGQERRTRTDTNLIVTKYDGRWKLHHIEIR,1.33
18,DESKEVSEDALRIMIELIKTGDEHLLQRYIDPDVRVDVNGRHTHGWHWVVRQIFEEIKRVDHMRIHLDSERVFNGRVHLDVTIHVHINGVEIDIKITLTFHKFDGRWLFHHIKHK,0.195
19,SEEEEEIERMFKDWSRAVRTGDEERYDHLADPNVRIHIGDKDVHGRENFIKYLHHIRIRDVRLRDFRIYDGRVELDIEVDRHVNGRDDRTQVIMVLLKFNGQWHVESVYVK,1.2
20,HEDEEWAEKMVREFLEATRTGDFESTLQLADPHVRFIINGKDIHGMEDWQEHLEHIRIQYHDIRIEHREVIGDKIYVKTRIDVTIHINGRKHRTVLDVEFIIHKVNGRWIIRELEIR,1.61
21,DEHDERQHKIHRRFFEAYMTGNEDEMLQLADPNVRLHIGDKDLIGRELFSTWVRELHDRFPGMRIHIEDEDIQGEKSHHRVRIHVDGVTRNVRINQDWYNGRLREMSIDIR,0.353
22,DEHHEILREASELFIKAWLTGDEDTMQEMMDPHTRVVFNGRTHHGWTFASEILERIKNIRIQIDDVRHQGEYVEIHFKLHIDGVRWNTKIHLHVIDGKLKRIQHTTE,1.01
23,DDRERERHRFLRELHESLETGDERELTRMLDPHARWVVGDKQHHGRETLTKFVSEVALRADHFHIEISRVREQGEFIDIDVRVILIIGDKVITIDQRLINLKVDGRWFLHERIVH,1.05
24,SEHDRLAHEWMRVFLHSIWTGDEDTILKMIDPHMRLDIDGVTFHGRDDVREWFHHHRERVDHIKDVDIKDVRIFDGKAETDRIVHVQVDGKEVDEEVLVILIVIDGRVTSIIIEKR,1.12
25,DEDEEMSERLSRIIVKALRTGNEHVLRRLVDPDVLSSIDGRKHHGWEDWHEFLKRLGHENVDVQLEHLRFQGNKIELDMILRVGDKTHTQHIHILKVDGRWTMHEVRIK,1.42
